Test results published in patent US8703503B2, “Methods and compositions for inhibition of BCL6 repression” (Albert Einstein School of Medicine of Yeshiva University, priority 2003, dated 2014).
Entries after “also recorded” stand apart in the source; their conditions may differ. Residues, ends and D or L forms follow the SMILES beside them. No end group written: not given here.

How the values were obtained:
[1] = target: T1, BCL6 BTB domain H116A mutant (Homo sapiens, UniProt P41182, C67R/C84N/C8Q/H116A); test: Co-purification assay with mutant BCL6 BTB domain H116A; format: binding
T1 construct: which is BCL6 residues 5-129, with the point mutations C8Q, C67R and C84N; thioredoxin-6His-TEV site-BirA motif-thrombin site fusion (N, cleaved yes); made in house; host or cells: E. coli
Description: (§1) In vitro binding assays. Co-purification: Equimolar amounts of His-tagged thioredoxin-corepressor fusion protein and BCL6 BTB or PLZF BTB domain were combined, incubated for at least two hours, and loaded onto a Ni-NTA spin column (Qiagen). The column was washed three times with 600 μl of wash buffer (200 mM NaCl, 20 mM Tris-HCl pH 8.0, 10 mM imidazole), and bound protein was released with 400 μl of elution buffer (200 mM NaCl, 20 mM Tris-HCl pH 8.0, 300 mM imidazole). Samples were analyzed on 10-20% SDS-PAGE gels and stained with Coomassie blue.

BCL6 BTB domain [2] = target: T2, BCL6 BTB domain (Homo sapiens, UniProt P41182, C67R/C84N/C8Q); test: Surface plasmon resonance (SPR) binding of BCL6 BTB domain to immobilized corepressor peptides; set-up: which is BCL6 residues 5-129, with the point mutations C8Q, C67R and C84N; made in house; details: for relative binding affinity by SPR: relative to the longer SMRT peptide(s)
Description: Protein Expression and Purification. […] BCL6 BTB domain protein was produced by thrombin digestion of the thioredoxin fusion proteins, and repurified by size-exclusion chromatography in 500 mM NaC1, 20 mM Tris-HCl, 10% glycerol, 1.0 mM TCEP, pH 8.5.
SPR: Biotinylated corepressor peptides were coupled to streptavidin-coated sensor chips to a density of 800 response units (Biacore 2000). BCL6 or PLZF BTB protein was serially diluted in running buffer (10 mM Hepes, pH 7.4, 150 mM NaCl, 3 mM EDTA, 0.005% v/v surfactant P20) and injected at a flow rate of 5 μL/min.

BCL6 BTB domain [3] = target: T2, BCL6 BTB domain; test: biochemical
Description: Protein Expression and Purification. […] BCL6 BTB domain protein was produced by thrombin digestion of the thioredoxin fusion proteins, and repurified by size-exclusion chromatography in 500 mM NaC1, 20 mM Tris-HCl, 10% glycerol, 1.0 mM TCEP, pH 8.5. Corepressor fusion proteins were biotinylated with BirA and digested with TEV protease to yield peptides for SPR analysis with a biotinylated lysine eight amino acids N-terminal to the first corepressor residue, or digested with thrombin to produce peptides with no additional N-terminal residues for co-crystallization or ITC.
ITC: The binding of SMRT^1414-1430 to BTB domain protein was analyzed on a Microcal VP-ITC instrument at 25° C. All components were in 150 mM NaCl, 20 mM Hepes pH 7.7, 1 mM TCEP. The experiment consisted of thirty 6.93 μL injections of a solution containing 480 μM SMRT^1414-1430 into a sample cell containing 1.8 mL of either BCL6 BTB (23.0 μM) or PLZF BTB (38.5 μM). To correct for dilution and mixing effects, a series of control injections was carried out, in which the heat of dilution was measured in blank titrations by injecting the peptide into the buffer.

[4] = target: T3, BCL6 BTB domain N21K mutant (Homo sapiens, UniProt P41182, C67R/C84N/C8Q/N21K); test: Co-purification assay with mutant BCL6 BTB domain N21K; format: binding
T3 construct: which is BCL6 residues 5-129, with the point mutations C8Q, C67R and C84N; thioredoxin-6His-TEV site-BirA motif-thrombin site fusion (N, cleaved yes); made in house; host or cells: E. coli
Description: as §1

BCL6 BTB domain [5] = target: T2, BCL6 BTB domain; test: Electrophoretic mobility shift assay (EMSA) for complex formation of BCoR fragments with BCL6 BTB domain; format: binding; set-up: which is BCL6 residues 5-129, with the point mutations C8Q, C67R and C84N; made in house; details: non-denaturing PAGE
Description: Further mapping of the minimal BCoR fragment was done with a version of an electrophoretic mobility shift assay (EMSA). Purified BCL6 BTB domain was mixed with a BCoR fragment (either as a fusion protein or as a purified peptide) and incubated at room temperature in a non-denaturing buffer. The mixture was analyzed by non-denaturing polyacrylamide gel electrophoresis (PAGE) and protein bands were visualized with either Coomassie blue staining or silver staining. A change in the position of the BCL6 BTB domain band was indicative of complex formation. […] These two sequences correspond to a S507A / W509A / V511A BCoR triple mutation, and to a S507W / W509S BCoR double mutation, respectively.

BCL6 BTB domain [6] = target: T2, BCL6 BTB domain; test: Co-purification assay (Ni-NTA) of His-tagged corepressor fusion proteins with BTB domain; format: binding; set-up: which is BCL6 residues 5-129, with the point mutations C8Q, C67R and C84N; made in house
Description: as §1
The initial BCL6 interacting fragment identified in the yeast two-hybrid screen consisted of residues 112-753 of BCoR (Huynh et al., 2000).

CC[C@H](C)[C@H](NC(=O)[C@H](CO)NC(=O)[C@H](CCCNC(=N)N)NC(=O)CNC(=O)[C@H](C)NC(=O)[C@H](CCC(=O)O)NC(=O)[C@H](CCCCN)NC(=O)[C@@H](NC(=O)[C@@H](NC(=O)[C@H](C)NC(=O)[C@@H](NC(=O)[C@@H](N)CC(C)C)C(C)C)[C@@H](C)O)C(C)C)C(=O)N[C@@H](Cc1c[nH]cn1)C(=O)N[C@@H](CCC(=O)O)C(=O)N[C@H](C(=O)N1CCC[C@H]1C(=O)N[C@@H](CCCNC(=N)N)C(=O)O)[C@@H](C)CC [SMRT^1414-1430, lvatvkeagrsiheipr] (H-LVATVKEAGRSIHEIPR-OH)
binding to H116A mutant BCL6 BTB domain [1]: does not bind
relative binding affinity by SPR (BCL6 BTB domain [2]): stronger binding
stoicheometry of the interaction by ITC (BCL6 BTB domain [3]): 1.11 ±0.06 SMRT peptides per BCL6 chain
enthalpic contribution ΔH (BCL6 BTB domain [3]; ITC): -23.2 ± 1.6 kcal/mol
entropic contribution −TΔS (BCL6 BTB domain [3]; ITC): 16.4±2.3
binding to N21K mutant BCL6 BTB domain [4]: does not bind

CC[C@H](C)[C@H](NC(=O)[C@H](CO)NC(=O)[C@H](CCCNC(=N)N)NC(=O)CNC(=O)[C@H](C)NC(=O)[C@H](CCC(=O)O)NC(=O)[C@H](CCCCN)NC(=O)[C@@H](NC(=O)[C@@H](NC(=O)[C@H](C)NC(=O)[C@@H](NC(=O)[C@@H](N)CC(C)C)C(C)C)[C@@H](C)O)C(C)C)C(=O)N[C@@H](Cc1cnc[nH]1)C(=O)N[C@@H](CCC(=O)O)C(=O)N[C@H](C(=O)N1CCC[C@H]1C(=O)N[C@@H](CCCNC(=N)N)C(=O)O)[C@@H](C)CC [SMRT^1414-1430, lvatvkeagrsiheipr] (H-LVATVKEAGRSIHEIPR-OH)
Kd (BCL6 BTB domain [3]): 11.4 ± 1 µM

BCoR 494-510: thioredoxin-6his fusion protein with BCoR residues 494-510 (CAIYRSEIISTAPSSWV; also: thioredoxin-6His fusion protein)
complex formation with the BCL6 BTB domain (EMSA band shift) (BCL6 BTB domain [5]): do not interact

BCoR 494-514: thioredoxin-6his fusion protein with BCoR residues 494-514 (CAIYRSEIISTAPSSWVVPGP; also: thioredoxin-6His fusion protein)
complex formation with the BCL6 BTB domain (EMSA band shift) (BCL6 BTB domain [5]): complexes were present

BCoR 502-522: thioredoxin-6his fusion protein with BCoR residues 502-522 (ISTAPSSWVVPGPSPNEENNG; also: thioredoxin-6His fusion protein)
complex formation with the BCL6 BTB domain (EMSA band shift) (BCL6 BTB domain [5]): complexes were present

BCoR 506-522: thioredoxin-6his fusion protein with BCoR residues 506-522 (PSSWVVPGPSPNEENNG; also: thioredoxin-6His fusion protein)
complex formation with the BCL6 BTB domain (EMSA band shift) (BCL6 BTB domain [5]): do not interact

CAIYRSEIISTAPSSWVVPGPSPNE (not fully specified) [BCoR 494-518, thioredoxin-6his fusion protein with BCoR residues 494-518]
complex formation with the BCL6 BTB domain (EMSA band shift) (BCL6 BTB domain [5]): forms a complex; also recorded: complexes were present

N-CoR^1351-1383: N-CoR corepressor peptide, residues 1351-1383, equivalent to the SMRT fragment (IHEIPRQDILTQESRKTPEVVQSTRPIIEGSIS; UniProt O75376 1351-1383, looked up, fragment)
fold stronger affinity of the BTB domain relative to the longer SMRT peptide (BCL6 BTB domain [2]; SPR, ratio of dissociation constants): 2.5 fold

RSEIISTAPASAVAPGP [BCoR peptide with S507A / W509A / V511A triple mutation]
complex formation with the BCL6 BTB domain (EMSA band shift) (BCL6 BTB domain [5]): did not result in a shift

RSEIISTAPSSWVVPGP [BCoR 498-514]
complex formation with the BCL6 BTB domain (EMSA band shift) (BCL6 BTB domain [5]): complexes were present

RSEIISTAPWSSVVPGP [BCoR peptide with S507W / W509S double mutation]
complex formation with the BCL6 BTB domain (EMSA band shift) (BCL6 BTB domain [5]): did not result in a shift

SMRT^1417-1441: N-terminally truncated SMRT corepressor peptide, residues 1417-1441 (TVKEAGRSIHEIPREELRHTPELPL; not fully specified)
relative binding affinity by SPR (BCL6 BTB domain [2]): slightly weaker binding

Trx-(SMRT-BBD): His-tagged thioredoxin fusion protein of the SMRT-BBD (LVATVKEAGRSIHEIPR; also: His-tagged thioredoxin fusion protein)
binding to H116A mutant BCL6 BTB domain [1]: significantly reduced affinity
binding to N21K mutant BCL6 BTB domain [4]: no binding at all

B1: BCoR 542 to 753: hexahistidine tagged fusion protein containing residues 542 to 753 of BCoR (protein, UniProt Q6W2J9 542-753, looked up, fragment)
chain: SSCPRMGGTDAVITNVSGSVSSAGRPASASPAPNANADGTKTSRSSVETTPSVIQHVGQPPATPAKHSSSTSSKGAKASNPEPSFKANENGLPPSSIFLSPNEAFRSPPIPYPRSYLPYPAPEGIAVSPLSLHGKGPVYPHPVLLPNGSLFPGHLAPKPGLPYGLPTGRPEFVTYQDALGLGMVHPMLIPHTPIEITKEEKPERRSRSHERA
modifications: hexahistidine tag
notes: hexahistidine tagged fusion protein containing residues 542 to 753 of BCoR
binding to BCL6 BTB domain in co-purification assay (BCL6 BTB domain [6]): did not

B2: BCoR fragment 317-547: hexahistidine tagged fusion protein containing residues 317 to 547 of BCoR (protein)
chain: SAKAVTSGLPGDTALLLPPSPRPSPRVHLPTQPAADTYSEFHKHYARISTSPSVALSKPYMTVSSEFPAARLSNGKYPKAPEGGEGAQPVPGHARKTAVQDRKDGSSPPLLEKQTVTKDVTDKPLDLSSKVVDVDASKADHMKKMAPTVLVHSRAGSGLVLSGSEIPKETLSPPGNGCAIYRSEIISTAPSSWVVPGPSPNEENNGKSMSLKNKALDWAIPQQRSSSCPRM
modifications: left off: large carriers
notes: hexahistidine tagged fusion protein containing residues 317 to 547 of BCoR
binding to H116A mutant BCL6 BTB domain [1]: did not bind
binding to BCL6 BTB domain in co-purification assay (BCL6 BTB domain [6]): bound directly
binding to N21K mutant BCL6 BTB domain [4]: did not bind

B3: BCoR 112 to 342: hexahistidine tagged fusion protein containing residues 112 to 342 of BCoR (protein, UniProt Q6W2J9 112-342, looked up, fragment)
chain: LGFSSERNPEMQFKPNTPETVEASAVSGKPPNGFSAIYKTPPGIQKSAVATAEALGLDRPASDKQSPLNINGASYLRLPWVNPYMEGATPAIYPFLDSPNKYSLNMYKALLPQQSYSLAQPLYSPVCTNGERFLYLPPPHYVGPHIPSSLASPMRLSTPSASPAIPPLVHCADKSLPWKMGVSPGNPVDSHAYPHIQNSKQPRVPSAKAVTSGLPGDTALLLPPSPRPSPR
modifications: hexahistidine tag
notes: hexahistidine tagged fusion protein containing residues 112 to 342 of BCoR
binding to BCL6 BTB domain in co-purification assay (BCL6 BTB domain [6]): did not
